Measured values from patent US20250340643A1 (AstraZeneca / MedImmune, published 2025).
Read-outs that look alike come from different tables or passages of the source.

Assays:
[1] = biological target: T1, CTLA4 on the cells of the reporter gene bioassay (human, UniProt P16410 36-223); experiment: cell-based or functional assay
T1 sequence (looked up): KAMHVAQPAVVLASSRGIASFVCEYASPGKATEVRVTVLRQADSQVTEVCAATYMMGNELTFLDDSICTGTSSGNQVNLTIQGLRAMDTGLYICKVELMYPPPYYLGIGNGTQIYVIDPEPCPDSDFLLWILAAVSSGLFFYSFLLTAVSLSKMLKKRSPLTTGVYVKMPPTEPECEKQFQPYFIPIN

[2] = biological target: T1, CTLA4 on the cells of the reporter gene …; experiment: cell-based or functional assay; remark: listed apart in the source
[3] = biological target: T1, CTLA4 on the cells of the reporter gene …; experiment: cell-based or functional assay; remark: listed apart in the source
[4] = biological target: T1, CTLA4 on the cells of the reporter gene …; experiment: cell-based or functional assay; remark: listed apart in the source
recombinant FcRn [5] = biological target: T2, recombinant FcRn (UniProt P55899 24-297; P61769 21-119, limits assumed); experiment: SPR, recombinant FcRn immobilized on the sensor; relative to Reference Standard
T2 construct: also called Neonatal Fc Receptor
Excerpt: (§1) A surface plasmon resonance binding assay was used to measure FcRn binding. This method is based on the ability of the test sample to bind to recombinant FcRn that has been immobilized on an SPR sensor surface. A reference flow cell was created using the same standard amine coupling procedure without the addition of FcRn.

[6] = biological target: T1, CTLA4 on the cells of the reporter gene …; experiment: cell-based or functional assay; remark: listed apart in the source
[7] = biological target: T1, CTLA4 on the cells of the reporter gene …; experiment: cell-based or functional assay; remark: listed apart in the source
recombinant FcRn [8] = biological target: T2, recombinant FcRn; experiment: SPR, recombinant FcRn immobilized on the sensor; relative to Reference Standard; remark: listed apart in the source
Excerpt: as §1

T2 sequence (P55899 24-297 limits assumed, form in doubt, chain 1 of 2): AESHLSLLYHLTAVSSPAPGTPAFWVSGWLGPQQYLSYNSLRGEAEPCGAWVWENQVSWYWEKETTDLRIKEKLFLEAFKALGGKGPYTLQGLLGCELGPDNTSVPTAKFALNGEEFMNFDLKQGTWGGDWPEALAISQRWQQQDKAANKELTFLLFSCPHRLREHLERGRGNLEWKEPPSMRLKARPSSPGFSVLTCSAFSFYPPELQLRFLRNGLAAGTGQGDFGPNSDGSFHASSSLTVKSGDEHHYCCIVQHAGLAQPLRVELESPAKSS
T2 sequence (P61769 21-119 limits assumed, form in doubt, chain 2 of 2): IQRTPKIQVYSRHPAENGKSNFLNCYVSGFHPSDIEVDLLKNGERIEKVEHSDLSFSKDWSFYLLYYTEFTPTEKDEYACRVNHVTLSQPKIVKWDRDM

B1: Tremelimumab, stressed starting material (low pH 2.5-3.0, 45° C., shaking) (antibody, human IgG2, kappa, V domains shown)
VH: QVQLVESGGGVVQPGRSLRLSCAASGFTFSSYGMHWVRQAPGKGLEWVAVIWYDGSNKYYADSVKGRFTISRDNSKNTLYLQMNSLRAEDTAVYYCARDPRGATLYYYYYGMDVWGQGTTVTVSS
VL: DIQMTQSPSSLSASVGDRVTITCRASQSINSYLDWYQQKPGKAPKLLIYAASSLQSGVPSRFSGSGSGTDFTLTISSLQPEDFATYYCQQYYSTPFTFGPGTKVEIKR
In the case of B1, the “Relative Potency (%)” value [1] is reported as 91%.

B2: Tremelimumab incubated in human serum at 37° C., week 4 (antibody, human IgG2, kappa, V domains shown)
VH: B1 VH
VL: B1 VL
modifications: Asn-30 deamidated in 34.8% (peptide mapping)
With B2 the “Relative Potency (%)” value [2] was 76%.

B3: Tremelimumab incubated in human serum at 37° C., week 5 (antibody, human IgG2, kappa, V domains shown)
VH: B1 VH
VL: B1 VL
modifications: Asn-30 deamidated in 37.7% (peptide mapping)
For B3, the “Relative Potency (%)” value [2] was 80%.

B4: Tremelimumab incubated in PBS at 37° C., week 0 (antibody, human IgG2, kappa, V domains shown)
VH: B1 VH
VL: B1 VL
modifications: Asn-30 deamidated in 2.2% (peptide mapping)
In the case of B4, the “Relative Potency (%)” value [2] is reported as 92%.

B5: Tremelimumab incubated in PBS at 37° C., week 1 (antibody, human IgG2, kappa, V domains shown)
VH: B1 VH
VL: B1 VL
modifications: Asn-30 deamidated in 8.8% (peptide mapping)
In the case of B5, the “Relative Potency (%)” value [2] is reported as 96%.

B6: Tremelimumab incubated in PBS at 37° C., week 2 (antibody, human IgG2, kappa, V domains shown)
VH: B1 VH
VL: B1 VL
modifications: Asn-30 deamidated in 18.5% (peptide mapping)
For B6, the “Relative Potency (%)” value [2] was 83%.

B7: Tremelimumab incubated in PBS at 37° C., week 3 (antibody, human IgG2, kappa, V domains shown)
VH: B1 VH
VL: B1 VL
modifications: Asn-30 deamidated in 27.0% (peptide mapping)
B7 was tested, and the “Relative Potency (%)” value [2] was 93%.

B8: Tremelimumab incubated in PBS at 37° C., week 4 (antibody, human IgG2, kappa, V domains shown)
VH: B1 VH
VL: B1 VL
modifications: Asn-30 deamidated in 37.7% (peptide mapping)
For B8, the “Relative Potency (%)” value [2] was 76%.

B9: Tremelimumab incubated in PBS at 37° C., week 5 (antibody, human IgG2, kappa, V domains shown)
VH: B1 VH
VL: B1 VL
modifications: Asn-30 deamidated in 44.7% (peptide mapping)
For B9, the “Relative Potency (%)” value [2] was 76%.

B10: Tremelimumab stressed at 40° C., 0 Months (fragment study) (antibody, human IgG2, kappa, V domains shown)
VH: B1 VH
VL: B1 VL
With B10 the “Relative Potency (%) (reporter gene assay)” value [3] was 95%.

B11: Tremelimumab stressed at 40° C., 2 Months (fragment study) (antibody, human IgG2, kappa, V domains shown)
VH: B1 VH
VL: B1 VL
For B11, the “Relative Potency (%) (reporter gene assay)” value [3] was 97%.

B12: Tremelimumab, Prep SEC aggregate fraction (antibody, human IgG2, kappa, V domains shown)
VH: B1 VH
VL: B1 VL
In the case of B12, the “Relative Potency (%)” value [1] is reported as 73%.

B13: Tremelimumab stressed at 40° C., 3 Months (fragment study) (antibody, human IgG2, kappa, V domains shown)
VH: B1 VH
VL: B1 VL
For B13, the “Relative Potency (%) (reporter gene assay)” value [3] was 97%.

B14: Heat-stressed Tremelimumab (40° C.), month 0 (oxidation study) (antibody, human IgG2, kappa, V domains shown)
VH: B1 VH
VL: B1 VL
modifications: oxidation by peptide mapping: Trp-52 1.8%, Met-256 1.3%, Met-362 1.6%, Met-401 1.6%, Met-432 1.2%
In the case of B14, the “Relative Potency (%)” value [4] is reported as 100%.

B15: Heat-stressed Tremelimumab (40° C.), month 1 (oxidation study) (antibody, human IgG2, kappa, V domains shown)
VH: B1 VH
VL: B1 VL
modifications: oxidation by peptide mapping: Trp-52 1.6%, Met-256 1.4%, Met-362 2.1%, Met-401 2.4%, Met-432 1.5%
With B15 the “Relative Potency (%)” value [4] was 112%.

B16: Heat-stressed Tremelimumab (40° C.), month 2 (oxidation study) (antibody, human IgG2, kappa, V domains shown)
VH: B1 VH
VL: B1 VL
modifications: oxidation by peptide mapping: Trp-52 2.5%, Met-256 2.0%, Met-362 2.6%, Met-401 3.8%, Met-432 2.2%
In the case of B16, the “Relative Potency (%)” value [4] is reported as 101%.

B17: Heat-stressed Tremelimumab (40° C.), month 3 (oxidation study) (antibody, human IgG2, kappa, V domains shown)
VH: B1 VH
VL: B1 VL
modifications: oxidation by peptide mapping: Trp-52 4.5%, Met-256 2.5%, Met-362 3.1%, Met-401 4.3%, Met-432 2.7%
With B17 the “Relative Potency (%)” value [4] was 98%.

B18: Tremelimumab, chemical oxidation study (100 ppm H2O2), Control t = 0 (antibody, human IgG2, kappa)
heavy: QVQLVESGGGVVQPGRSLRLSCAASGFTFSSYGMHWVRQAPGKGLEWVAVIWYDGSNKYYADSVKGRFTISRDNSKNTLYLQMNSLRAEDTAVYYCARDPRGATLYYYYYGMDVWGQGTTVTVSSASTKGPSVFPLAPCSRSTSESTAALGCLVKDYFPEPVTVSWNSGALTSGVHTFPAVLQSSGLYSLSSVVTVPSSNFGTQTYTCNVDHKPSNTKVDKTVERKCCVECPPCPAPPVAGPSVFLFPPKPKDTLMISRTPEVTCVVVDVSHEDPEVQFNWYVDGVEVHNAKTKPREEQFNSTFRVVSVLTVVHQDWLNGKEYKCKVSNKGLPAPIEKTISKTKGQPREPQVYTLPPSREEMTKNQVSLTCLVKGFYPSDIAVEWESNGQPENNYKTTPPMLDSDGSFFLYSKLTVDKSRWQQGNVFSCSVMHEALHNHYTQKSLSLSPGK
light: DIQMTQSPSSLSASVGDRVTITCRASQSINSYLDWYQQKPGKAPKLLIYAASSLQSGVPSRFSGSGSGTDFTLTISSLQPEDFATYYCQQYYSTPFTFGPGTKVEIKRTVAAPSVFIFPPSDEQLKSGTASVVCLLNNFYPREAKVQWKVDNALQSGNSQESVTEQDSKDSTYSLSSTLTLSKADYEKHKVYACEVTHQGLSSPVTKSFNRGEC
modifications: oxidation by peptide mapping: Met-256 1.2%, Met-362 0.9%, Met-401 1.4%, Met-432 0.2%
B18 was tested, and the “Relative FcRn Binding (%)” value (recombinant FcRn [5]) was 89% and the “Relative Potency (%)” value [6] was 100%.

B19: Tremelimumab incubated with 100 ppm H2O2 for 8 hours (antibody, human IgG2, kappa)
heavy: B18 heavy
light: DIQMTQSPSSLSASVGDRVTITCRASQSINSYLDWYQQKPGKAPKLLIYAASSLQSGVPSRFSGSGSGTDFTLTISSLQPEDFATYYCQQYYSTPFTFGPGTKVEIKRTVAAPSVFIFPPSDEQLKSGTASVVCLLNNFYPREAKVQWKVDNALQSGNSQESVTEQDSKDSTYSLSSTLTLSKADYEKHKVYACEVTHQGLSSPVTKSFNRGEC
modifications: oxidation by peptide mapping: Met-256 13.4%, Met-362 3.9%, Met-401 13.3%, Met-432 2.4%
B19 was tested, and the “Relative FcRn Binding (%)” value (recombinant FcRn [5]) was 93% and the “Relative Potency (%)” value [6] was 88%.

B20: Tremelimumab incubated with 100 ppm H2O2 for 25 hours (antibody, human IgG2, kappa)
heavy: B18 heavy
light: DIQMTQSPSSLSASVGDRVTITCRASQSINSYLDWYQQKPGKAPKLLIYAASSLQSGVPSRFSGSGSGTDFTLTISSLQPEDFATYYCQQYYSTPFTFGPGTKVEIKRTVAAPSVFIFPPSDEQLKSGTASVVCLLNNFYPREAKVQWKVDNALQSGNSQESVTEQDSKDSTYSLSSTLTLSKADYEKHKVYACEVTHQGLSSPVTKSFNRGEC
modifications: oxidation by peptide mapping: Met-256 35.5%, Met-362 9.7%, Met-401 28.7%, Met-432 7.8%
In the case of B20, the “Relative FcRn Binding (%)” value (recombinant FcRn [5]) is reported as 91% and the “Relative Potency (%)” value [6] is reported as 83%.

B21: Tremelimumab incubated with 100 ppm H2O2 for 2 days (antibody, human IgG2, kappa)
heavy: B18 heavy
light: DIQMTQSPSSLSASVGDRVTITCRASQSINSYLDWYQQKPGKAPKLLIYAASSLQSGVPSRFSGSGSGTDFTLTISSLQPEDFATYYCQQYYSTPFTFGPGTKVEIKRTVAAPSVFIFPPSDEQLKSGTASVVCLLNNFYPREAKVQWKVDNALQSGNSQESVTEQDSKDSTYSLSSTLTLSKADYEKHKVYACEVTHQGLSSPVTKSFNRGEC
modifications: oxidation by peptide mapping: Met-256 55.8%, Met-362 17.8%, Met-401 44.6%, Met-432 20.7%
With B21 the “Relative FcRn Binding (%)” value (recombinant FcRn [5]) was 37% and the “Relative Potency (%)” value [6] was 88%.

B22: Tremelimumab incubated with 100 ppm H2O2 for 3 days (antibody, human IgG2, kappa)
heavy: B18 heavy
light: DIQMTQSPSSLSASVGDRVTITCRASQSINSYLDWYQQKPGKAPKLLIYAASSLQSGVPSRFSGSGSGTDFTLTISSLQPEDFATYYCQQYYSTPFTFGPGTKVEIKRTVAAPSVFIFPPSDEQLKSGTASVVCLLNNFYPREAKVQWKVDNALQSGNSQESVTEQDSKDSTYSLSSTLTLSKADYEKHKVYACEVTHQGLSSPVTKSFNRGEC
modifications: oxidation by peptide mapping: Met-256 68.5%, Met-362 26.5%, Met-401 55.2%, Met-432 42.1%
With B22 the “Relative FcRn Binding (%)” value (recombinant FcRn [5]) was 28% and the “Relative Potency (%)” value [6] was 83%.

B23: Tremelimumab, Prep SEC monomer fraction (antibody, human IgG2, kappa, V domains shown)
VH: B1 VH
VL: B1 VL
In the case of B23, the “Relative Potency (%)” value [1] is reported as 98%.

B24: Tremelimumab incubated with 100 ppm H2O2 for 4 days (antibody, human IgG2, kappa)
heavy: B18 heavy
light: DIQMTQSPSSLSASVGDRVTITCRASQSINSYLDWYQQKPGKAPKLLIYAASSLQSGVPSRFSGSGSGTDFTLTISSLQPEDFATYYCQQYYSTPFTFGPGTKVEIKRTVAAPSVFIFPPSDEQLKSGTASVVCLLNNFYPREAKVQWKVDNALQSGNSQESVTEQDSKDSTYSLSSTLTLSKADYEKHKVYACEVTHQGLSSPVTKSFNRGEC
modifications: oxidation by peptide mapping: Met-256 79.8%, Met-362 36.3%, Met-401 63.7%, Met-432 53.0%
With B24 the “Relative FcRn Binding (%)” value (recombinant FcRn [5]) was 24% and the “Relative Potency (%)” value [6] was 98%.

B25: Tremelimumab, photo-stress study according to ICH guideline, Dark control (antibody, human IgG2, kappa)
heavy: B18 heavy
light: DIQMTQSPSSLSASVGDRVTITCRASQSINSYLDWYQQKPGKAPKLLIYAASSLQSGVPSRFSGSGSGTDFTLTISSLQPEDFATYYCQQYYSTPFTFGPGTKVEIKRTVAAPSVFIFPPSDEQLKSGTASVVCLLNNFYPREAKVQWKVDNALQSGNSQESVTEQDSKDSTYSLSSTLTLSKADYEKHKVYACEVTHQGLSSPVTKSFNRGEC
modifications: oxidation by peptide mapping: Trp-52 3.3%, Met-256 2.8%, Met-362 1.3%, Met-401 1.3%, Met-432 0.6%
With B25 the “Relative Potency (%)” value [7] was 107% and the “Relative FcRn Binding (%)” value (recombinant FcRn [8]) was 91%.

B26: Tremelimumab, photo-stressed, DP 1x ICH (antibody, human IgG2, kappa)
heavy: B18 heavy
light: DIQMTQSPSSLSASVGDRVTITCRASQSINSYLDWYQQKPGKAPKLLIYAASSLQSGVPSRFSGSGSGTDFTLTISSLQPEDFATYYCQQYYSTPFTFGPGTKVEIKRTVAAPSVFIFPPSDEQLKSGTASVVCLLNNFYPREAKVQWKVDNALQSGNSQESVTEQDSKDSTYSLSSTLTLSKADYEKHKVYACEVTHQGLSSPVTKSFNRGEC
modifications: oxidation by peptide mapping: Trp-52 10.9%, Met-256 12.1%, Met-362 3.8%, Met-401 4.1%, Met-432 11.9%
With B26 the “Relative Potency (%)” value [7] was 87% and the “Relative FcRn Binding (%)” value (recombinant FcRn [8]) was 78%.

B27: Tremelimumab, photo-stressed, DP 3x ICH (antibody, human IgG2, kappa)
heavy: B18 heavy
light: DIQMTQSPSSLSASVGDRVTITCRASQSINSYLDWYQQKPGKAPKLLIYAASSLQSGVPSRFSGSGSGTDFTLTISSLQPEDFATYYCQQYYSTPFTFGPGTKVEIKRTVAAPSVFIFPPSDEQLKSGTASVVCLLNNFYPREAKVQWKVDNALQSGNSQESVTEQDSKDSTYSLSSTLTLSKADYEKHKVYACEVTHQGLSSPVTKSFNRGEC
modifications: oxidation by peptide mapping: Trp-52 36.7%, Met-256 41.9%, Met-362 12.8%, Met-401 15.8%, Met-432 34.6%
In the case of B27, the “Relative Potency (%)” value [7] is reported as 59% and the “Relative FcRn Binding (%)” value (recombinant FcRn [8]) is reported as 41%.

B28: Tremelimumab, photo-stress study at 2000 lux, t = 0 control (antibody, human IgG2, kappa)
heavy: B18 heavy
light: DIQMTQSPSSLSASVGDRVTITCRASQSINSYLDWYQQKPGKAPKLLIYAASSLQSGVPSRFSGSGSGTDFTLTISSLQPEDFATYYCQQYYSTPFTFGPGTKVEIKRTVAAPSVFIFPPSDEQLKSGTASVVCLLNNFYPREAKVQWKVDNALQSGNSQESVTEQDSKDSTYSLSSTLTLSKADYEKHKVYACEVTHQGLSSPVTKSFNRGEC
modifications: oxidation by peptide mapping: Trp-52 0.7%, Met-256 3.3%, Met-362 1.4%, Met-401 1.6%, Met-432 1.0%
For B28, the “Relative Potency (%)” value [7] was 102% and the “Relative FcRn Binding (%)” value (recombinant FcRn [8]) was 98%.

B29: Tremelimumab, cool white light about 2000 lux for 14 days, DP (2R vial, horizontal) (antibody, human IgG2, kappa)
heavy: B18 heavy
light: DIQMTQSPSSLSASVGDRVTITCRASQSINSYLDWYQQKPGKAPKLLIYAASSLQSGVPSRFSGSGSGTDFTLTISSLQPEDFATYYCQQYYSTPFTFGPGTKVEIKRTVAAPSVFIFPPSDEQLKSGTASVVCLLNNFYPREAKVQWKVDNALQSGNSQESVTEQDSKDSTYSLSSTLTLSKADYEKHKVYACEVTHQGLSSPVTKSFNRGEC
modifications: oxidation by peptide mapping: Trp-52 6.4%, Met-256 7.8%, Met-362 2.5%, Met-401 2.7%, Met-432 5.4%
notes: also called DP (2R vial, horizontal) 14
For B29, the “Relative Potency (%)” value [7] was 97% and the “Relative FcRn Binding (%)” value (recombinant FcRn [8]) was 92%.

B30: Tremelimumab, cool white light about 2000 lux for 14 days, DP (2R vial vertical) (antibody, human IgG2, kappa)
heavy: B18 heavy
light: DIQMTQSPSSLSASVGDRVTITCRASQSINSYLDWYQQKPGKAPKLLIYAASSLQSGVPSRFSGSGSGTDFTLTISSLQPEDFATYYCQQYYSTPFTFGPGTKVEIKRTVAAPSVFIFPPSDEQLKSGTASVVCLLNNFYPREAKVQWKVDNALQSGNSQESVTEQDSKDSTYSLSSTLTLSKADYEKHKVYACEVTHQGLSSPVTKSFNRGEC
modifications: oxidation by peptide mapping: Trp-52 5.4%, Met-256 7.1%, Met-362 2.2%, Met-401 2.5%, Met-432 4.7%
For B30, the “Relative Potency (%)” value [7] was 90% and the “Relative FcRn Binding (%)” value (recombinant FcRn [8]) was 94%.

B31: Tremelimumab incubated in human serum at 37° C., week 0 (antibody, human IgG2, kappa, V domains shown)
VH: B1 VH
VL: B1 VL
modifications: Asn-30 deamidated in 3.4% (peptide mapping)
For B31, the “Relative Potency (%)” value [2] was 106%.

B32: Tremelimumab incubated in human serum at 37° C., week 1 (antibody, human IgG2, kappa, V domains shown)
VH: B1 VH
VL: B1 VL
modifications: Asn-30 deamidated in 11.1% (peptide mapping)
With B32 the “Relative Potency (%)” value [2] was 98%.

B33: Tremelimumab incubated in human serum at 37° C., week 2 (antibody, human IgG2, kappa, V domains shown)
VH: B1 VH
VL: B1 VL
modifications: Asn-30 deamidated in 22.9% (peptide mapping)
In the case of B33, the “Relative Potency (%)” value [2] is reported as 91%.

B34: Tremelimumab incubated in human serum at 37° C., week 3 (antibody, human IgG2, kappa, V domains shown)
VH: B1 VH
VL: B1 VL
modifications: Asn-30 deamidated in 33.9% (peptide mapping)
With B34 the “Relative Potency (%)” value [2] was 82%.
